Test results as given in FireProtDB (doi:10.1074/jbc.274.53.37533).

B1: Cytochrome c-551, P00099 (parent)
chain: MKPYALLSLLATGTLLAQGAWAEDPEVLFKNKGCVACHAIDTKMVGPAYKDVAAKFAGQAGAEAELAQRIKNGSQGVWGPIPMPPNAVSDDEAQTLAKWVLSQK

Variants of: B1
Details: Pseudomonas aeruginosa (strain ATCC 15692 / DSM 22644 / CIP 104116 / JCM 14847 / LMG 12228 / 1C / PRS 101 / PAO1), pH 5, CD, structure 451C, whole UniProt chain shown

Variant | ddG of mutation (higher = less stable) (50.4 °C, Thermal, HCl 10 mM) | Tm (Thermal, HCl) | change of melting temperature, mutant - wild type (higher = more stable) (Thermal, HCl) | unfolding enthalpy (van 't Hoff) (Thermal, HCl) | ddG of mutation (higher = less stable) (25 °C, GdnHCl, HCl) | denaturant m value (25 °C, GdnHCl, HCl) | denaturant midpoint (higher = more stable) (25 °C, GdnHCl, HCl)
MKPYALLSLLATGTLLAQGAWAEDPEVLAKNKGCMACHAIDTKMVGPAYKDVAAKFAGQAGAEAELAQRIKNGSQGVWGPIPMPPNAVSDDEAQTLAKWVLSQK [F29A V35M] | -1.4 kcal/mol | 62.4 °C | 12 °C | 46.7 kcal/mol |  |  | 
MKPYALLSLLATGTLLAQGAWAEDPEVLAKNKGCVACHAIDTKMVGPAYKDVAAKFAGQAGAEAELAQRIKNGSQGVWGPIPMPPNAVSDDEAQTLAKWVLSQK [F29A] | -1.1 kcal/mol | 59.9 °C | 9.5 °C | 48.2 kcal/mol |  |  | 
MKPYALLSLLATGTLLAQGAWAEDPEVLFKNKGCVACHAIDTKMVGPAYKDVAAKFAGQAGAEAYLAQRIKNGSQGVWGPIPMPPNAVSDDEAQTLAKWVLSQK [E65Y] | -0.6 kcal/mol | 55.5 °C | 5.1 °C | 57.4 kcal/mol |  |  | 
MKPYALLSLLATGTLLAQGAWAEDPEVLFKNKGCVACHAIDTKMVGPAYKDVAAKFAGRAGAEAELAQRIKNGSQGVWGPIPMPPNAVSDDEAQTLAKWVLSQK [Q59R] | -0.5 kcal/mol | 54.7 °C | 4.3 °C | 51.3 kcal/mol |  |  | 
MKPYALLSLLATGTLLAQGAWAEDPEVLFKNKGCVACHAIDTKMVGPAYKDVAAKFAGRAGAEAYLAQRIKNGSQGVWGPIPMPPNAVSDDEAQTLAKWVLSQK [Q59R E65Y] | -0.5 kcal/mol | 54.7 °C | 4.3 °C | 46.2 kcal/mol |  |  | 
MKPYALLSLLATGTLLAQGAWAEDPEVLFKNKGCVACHAIDTKMVGPAYKDVAAKYAGQAGAEAELAQRIKNGSQGVWGPIPMPPNAVSDDEAQTLAKWVLSQK [F56Y] | -1.9 kcal/mol | 66.4 °C | 16 °C | 61.2 kcal/mol |  |  | 
MKPYALLSLLATGTLLAQGAWAEDPEVLFKNKGCVACHAIDTKMVGPAYKDVAAKFAGQAGAEAELAQRIKNGSQGVWGPIPMPPNAVSDDEAQTLAKWILSQK [V100I] | -1 kcal/mol | 58.8 °C | 8.4 °C | 43.8 kcal/mol | -0.06 kcal/mol | 2.02 kcal/mol/M | 2.44 M
MKPYALLSLLATGTLLAQGAWAEDPEVLFKNKGCVACHAIDTKMVGPAYKDVAAKYAGRAGAEAYLAQRIKNGSQGVWGPIPMPPNAVSDDEAQTLAKWVLSQK [F56Y Q59R E65Y] | -2 kcal/mol | 57.9 °C | 17.5 °C | 56.4 kcal/mol |  |  | 
MKPYALLSLLATGTLLAQGAWAEDPEVLFKNKGCMACHAIDTKMVGPAYKDVAAKFAGQAGAEAELAQRIKNGSQGVWGPIPMPPNAVSDDEAQTLAKWVLSQK [V35M] | -0.4 kcal/mol | 53.6 °C | 3.2 °C | 43.8 kcal/mol |  |  | 
MKPYALLSLLATGTLLAQGAWAEDPEVLFKNKGCVACHAIDTKMVGPAYKDVAAKYAGQAGAEAYLAQRIKNGSQGVWGPIPMPPNAVSDDEAQTLAKWVLSQK [F56Y E65Y] | -2.4 kcal/mol | 70.7 °C | 20.3 °C | 63.7 kcal/mol |  |  | 
MKPYALLSLLATGTLLAQGAWAEDPEVLFKNKGCVACHAIDTKMVGPAYKDVAAKYAGRAGAEAELAQRIKNGSQGVWGPIPMPPNAVSDDEAQTLAKWVLSQK [F56Y Q59R] | -1.5 kcal/mol | 62.9 °C | 12.5 °C | 54.5 kcal/mol |  |  | 
